# Source: US11912789B2, “Peptide activating agent” (Interk Peptide Therapeutics Limited, priority 2018, dated 2024)
# Non-standard residues stand in square brackets, D forms with d. Residues, ends and D or L forms follow the SMILES beside them. No end group written: not given here. ξ: configuration not given here. ξGly(decyl) = CCCCCCCCCCC(N)C(=O)O; 2Adod = 2-amino-dodecanoic acid
# Key:
# Lck = target: T1, Lck (Homo sapiens, UniProt P06239); assay: In vitro Lck activation kinase study (Eurofins); assay type: biochemical
# T1 construct: purchased Eurofins Pharma Discovery Services UK Limited
# T1 sequence (P06239 whole entry): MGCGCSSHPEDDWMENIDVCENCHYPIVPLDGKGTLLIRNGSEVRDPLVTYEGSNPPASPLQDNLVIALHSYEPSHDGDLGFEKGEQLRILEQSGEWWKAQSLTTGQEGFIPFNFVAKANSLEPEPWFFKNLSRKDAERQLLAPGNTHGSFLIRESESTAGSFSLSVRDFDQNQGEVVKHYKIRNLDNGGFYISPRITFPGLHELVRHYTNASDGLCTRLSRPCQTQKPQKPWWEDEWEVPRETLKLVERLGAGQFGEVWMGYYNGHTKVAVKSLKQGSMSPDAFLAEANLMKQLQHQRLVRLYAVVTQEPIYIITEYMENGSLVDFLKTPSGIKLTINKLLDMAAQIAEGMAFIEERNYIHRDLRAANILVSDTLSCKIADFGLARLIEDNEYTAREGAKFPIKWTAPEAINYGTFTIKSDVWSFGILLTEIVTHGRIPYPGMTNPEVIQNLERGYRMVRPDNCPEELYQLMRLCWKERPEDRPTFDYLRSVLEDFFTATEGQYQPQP
# Experimental: (§1) The ability of polypeptides of the present invention to activate Lck was examined in vitro. Lck is member of the Src family of tyrosine kinases. In vitro Lck activation kinase studies were conducted by Eurofins Pharma Discovery Services UK Limited (Dundee Technology Park, Dundee, United Kingdom) using ATP concentrations within 15 μM of the apparent Km in the presence of peptide substrate (KVEKIGEGTYGVVYK; (SEQ ID NO: 63)) and test polypeptide in semi-log dose ranges. All results in Examples X percentage Lck activity relative to control (100%).
# (§2) The ability of polypeptides of the present invention to activate Src family kinases was examined in vitro. Lck activation studies were carried out as described above and all Lck activity values are shown as percentage relative to control. In brief, Table 4 and Table 5 illustrate the selective activation of Lck kinase amongst the Src family kinases in the presence of the peptide RSKAKNPLY at 10 μM concentration.
# The effect of modification of cationic amino acid positions and substitutions of the peptide RSKAKNPLY was examined. In brief, peptides with amino acid sequence changes compared to the peptide Pep9 (RSKAKNPLY) were assessed for the ability to stimulate Lck activity. All results are shown as percentage relative to control (100%).
# Lck activity was evaluated as described in Example 1 and all Lck activity values are shown as percentage relative to control (100%). For ease of description, the polyamide moiety is referred to by “nCy” wherein n is the number of repeating units of the polyamide moiety, Cy is the number of carbon atoms of the R group in each repeating unit, and each R group is a saturated, linear carbon chain. Thus, in the present example, “4C10” is to be taken to refer to a polyamide moiety as shown in Scheme 1 above which has 4 repeating units (n=4) in which the R group of each repeating unit is a saturated, carbon side chain that is 10 carbon atoms in length (e.g. four 2-amino dodecanoic acids).
# Lck(h) = target: T2, Lck(h) (Homo sapiens, UniProt P06239); assay: Western blot of Lck auto-phosphorylation at Y394 (anti-pY394 Lck); assay type: biochemical; conditions: 10 μM and 30 μM; ATP, no peptide substrate; FIG. 2
# T2 construct: purchased Eurofins Pharma Discovery Services UK Limited
# T2 sequence (P06239 whole entry): as above
# Experimental: Western blot studies were performed by Eurofins Pharma Discovery Services UK Limited (Dundee, United Kingdom). In brief, Lck(h) was incubated in the presence of test peptide employing standard KinaseProfiler™ reaction conditions (Eurofins Pharma Discovery Services UK Limited) and an ATP concentration within 15 μM of the Km. Reactions were allowed to proceed for 40 minutes at room temperature before being stopped by the addition of SDS-sample buffer. In each case the Lck enzyme was diluted to yield 20 ng per 25 μl reaction. Appropriate controls in the absence of compound and peptide were also run as well as an untreated sample of both the Lck(h) and Lck(h) activated kinases. The resulting samples were then subjected to SDS-PAGE and western blot analysis using the antibodies 4G10 (anti-phospho-tyrosine antibody) (see FIG. 3) and anti-pY394 Lck (R&D Systems MAB7500) (see FIG. 2). An additional blot using the secondary detection antibody (anti-mouse-HRP) was also performed. The membranes were stained by Ponceau S to verify sample loading and effective protein transfer. The 4G10 antibody is a general anti-phospho-tyrosine antibody and there are several tyrosine residues in Lck but only one auto-phosphorylating tyrosine residue, i.e., at position Y394. […] Samples were as follows (numbers correspond to the lanes on the gel): • 1. Molecular weight markers • 2. […]
# wild-type Jurkat cells = assay: IL-2, IL-12 secretion and IL-2Ra expression in Jurkat cells (anti-CD3/anti-CD28), ELISA; assay type: cell-based, human; conditions: 48 hours; for IL-2 secretion: Biotin-CD3, CD28 and avidin stimulation, supernatant ELISA, FIG. 14, FIG. 42A; for IL-12 secretion: Biotin-anti-CD3, anti-CD28 and avidin, FIG. 42B
# Experimental: Cells were seeded at 1 million per well (12 well plate, 2 mL volume) and stimulated with Biotin-CD3, CD28, and avidin (5:5:1.25 μg). The cells were then treated with RSKAKNPLYR-(2Adod)4-NH2 at three concentrations as indicated plus vehicle control. The samples were then incubated for 48 hours at 37° C. after which supernatants were analysed for IL-2 content by ELISA.
# Shown are Jurkat wild type (WT) cells and Lck deficient Jurkat cells (JCaM1.6) stimulated with anti-CD3/anti-CD28. 12 well plates were coated with anti-CD3 (5 μg/mL) solution made up in PBS (200 μL) and incubated at 37° C. overnight. The next day the anti-CD3 solution was aspirated and wells gently washed twice with media (1 mL, 10 minutes). Jurkat cells (WT and Lck Deficient) were seeded at 1 million per well in anti-CD3 coated 12 well plates, further stimulated with anti-CD28 (5 ug/mL) and at time zero treated with RSKAKNPLYR-(2Adod)4-NH2 (2.5 μM). Cells were incubated for 72 hours. For the IL-2 assay, left, supernatants were analysed for IL-2 content by ELISA. For the IL-2Ra assay, right, cells were lysed with 100 μL of lysis solution containing protease and phosphatase inhibitors as well as PP2 (10 μM). The collected cell lysates were subjected to the BCA protein assay. Cell lysates (40 μg protein) were then analysed for IL-2Ra by ELISA.
# In two separate experiments, 5 million unstimulated JCam1.6 (Lck deficient) and 5 million 6.1 (WT) Jurkat cells, respectively, were seeded in T25 flasks. The cells were treated with RSKAKNPLYR-(2Adod)4-NH2 at 5 μM, 10 μM and 20 μM concentrations for 1 hour after which the cell suspensions were centrifuged and washed twice with fresh media. For each experiment, a mixture of Biotin-anti-CD3 and Avidin (5:1.25 ug) in 500 μL of media was added to the wells of a 12 well plate. After 10 minutes the unstimulated, washed cells were seeded at 1 million cells per well and the cell suspension made up to 2 mL volume with media. The samples were then further stimulated with anti-CD28 (5 ug/mL), after which the samples were incubated for 48 hours at 37° C. The supernatants (100 μL, n=3), were then analyzed for IL-2 content.
# 12 well plates were coated with anti-CD3 (5 μg/mL) solution made up in PBS (200 μL) and incubated at 37° C. overnight. […] Cells were incubated for 24 hours and supernatants were then analysed for IL-2 by ELISA.
# 12 well plates were coated with anti-CD3 (5 μg/mL) solution made up in PBS (200 μL) and incubated at 37° C. overnight. […] Cell lysates (40 μg protein) were then analysed for IL-2Ra by ELISA.
# 12 well plates were coated with anti-CD3 (5 μg/mL) solution made up in PBS (200 μL) and incubated at 37° C. overnight. […] Cells were incubated for 72 hours and the supernatants were then analysed for IL-2 by ELISA. […]
# Blk = target: T3, Blk (Homo sapiens, UniProt P51451); assay: In vitro Src family kinase activation study (Eurofins); assay type: biochemical; conditions: Table 5
# T3 construct: purchased Eurofins Pharma Discovery Services UK Limited
# T3 sequence (P51451 whole entry, species assumed): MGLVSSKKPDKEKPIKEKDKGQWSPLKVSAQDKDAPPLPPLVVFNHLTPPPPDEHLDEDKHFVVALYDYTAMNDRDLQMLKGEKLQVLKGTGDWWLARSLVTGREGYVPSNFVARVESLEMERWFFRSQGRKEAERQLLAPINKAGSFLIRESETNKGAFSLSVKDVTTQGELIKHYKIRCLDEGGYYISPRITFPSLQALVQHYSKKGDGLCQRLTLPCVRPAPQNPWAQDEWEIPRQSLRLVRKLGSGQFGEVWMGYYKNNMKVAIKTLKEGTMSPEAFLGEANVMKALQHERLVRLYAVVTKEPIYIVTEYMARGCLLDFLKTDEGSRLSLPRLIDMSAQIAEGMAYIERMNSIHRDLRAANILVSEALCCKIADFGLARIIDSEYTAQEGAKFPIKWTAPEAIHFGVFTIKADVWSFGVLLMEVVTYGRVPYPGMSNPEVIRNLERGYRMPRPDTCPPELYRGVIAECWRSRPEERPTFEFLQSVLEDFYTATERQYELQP
# Experimental: as §1, §2
# Fgr = target: T4, Fgr (Homo sapiens, UniProt P09769); assay: as above; assay type: biochemical; conditions: Table 5
# T4 construct: purchased Eurofins Pharma Discovery Services UK Limited
# Experimental: as §1, §2
# Fyn = target: T5, Fyn (Homo sapiens, UniProt P06241); assay: as above; assay type: biochemical; conditions: Table 5
# T5 construct: purchased Eurofins Pharma Discovery Services UK Limited
# T5 sequence (P06241 whole entry, species assumed): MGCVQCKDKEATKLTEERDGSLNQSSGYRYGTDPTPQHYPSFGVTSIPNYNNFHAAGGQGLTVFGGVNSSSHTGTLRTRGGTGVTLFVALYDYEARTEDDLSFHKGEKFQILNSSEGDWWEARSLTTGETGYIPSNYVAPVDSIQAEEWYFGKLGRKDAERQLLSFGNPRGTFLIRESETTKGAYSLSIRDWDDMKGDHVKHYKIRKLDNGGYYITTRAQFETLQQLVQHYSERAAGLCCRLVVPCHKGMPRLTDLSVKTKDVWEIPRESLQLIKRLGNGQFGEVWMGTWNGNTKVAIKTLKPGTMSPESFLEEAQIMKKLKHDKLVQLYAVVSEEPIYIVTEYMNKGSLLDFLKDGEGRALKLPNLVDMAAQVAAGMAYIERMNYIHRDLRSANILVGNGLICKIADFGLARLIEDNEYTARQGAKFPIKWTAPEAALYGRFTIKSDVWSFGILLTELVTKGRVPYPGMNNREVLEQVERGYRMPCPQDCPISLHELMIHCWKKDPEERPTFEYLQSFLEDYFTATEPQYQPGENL
# Experimental: as §1, §2
# Lyn = target: T6, Lyn (Homo sapiens, UniProt P07948); assay: as above; assay type: biochemical; conditions: Table 5
# T6 construct: purchased Eurofins Pharma Discovery Services UK Limited
# T6 sequence (P07948 whole entry, species assumed): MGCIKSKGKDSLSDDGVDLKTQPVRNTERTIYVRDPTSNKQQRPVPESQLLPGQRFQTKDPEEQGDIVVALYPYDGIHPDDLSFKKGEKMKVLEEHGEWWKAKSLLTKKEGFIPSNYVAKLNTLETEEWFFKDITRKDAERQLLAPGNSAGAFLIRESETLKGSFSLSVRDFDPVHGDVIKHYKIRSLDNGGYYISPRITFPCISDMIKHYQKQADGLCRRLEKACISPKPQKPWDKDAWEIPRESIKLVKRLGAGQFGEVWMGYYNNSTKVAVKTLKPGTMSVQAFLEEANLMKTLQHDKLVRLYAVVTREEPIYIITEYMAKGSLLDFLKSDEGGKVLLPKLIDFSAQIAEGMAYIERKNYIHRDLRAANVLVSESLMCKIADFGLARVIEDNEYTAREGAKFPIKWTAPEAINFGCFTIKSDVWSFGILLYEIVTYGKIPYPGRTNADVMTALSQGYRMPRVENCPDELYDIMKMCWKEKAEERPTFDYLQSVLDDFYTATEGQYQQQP
# Experimental: as §1, §2
# Yes = target: T7, Yes (Homo sapiens, UniProt P07947); assay: as above; assay type: biochemical; conditions: Table 5
# T7 construct: purchased Eurofins Pharma Discovery Services UK Limited
# T7 sequence (P07947 whole entry, species assumed): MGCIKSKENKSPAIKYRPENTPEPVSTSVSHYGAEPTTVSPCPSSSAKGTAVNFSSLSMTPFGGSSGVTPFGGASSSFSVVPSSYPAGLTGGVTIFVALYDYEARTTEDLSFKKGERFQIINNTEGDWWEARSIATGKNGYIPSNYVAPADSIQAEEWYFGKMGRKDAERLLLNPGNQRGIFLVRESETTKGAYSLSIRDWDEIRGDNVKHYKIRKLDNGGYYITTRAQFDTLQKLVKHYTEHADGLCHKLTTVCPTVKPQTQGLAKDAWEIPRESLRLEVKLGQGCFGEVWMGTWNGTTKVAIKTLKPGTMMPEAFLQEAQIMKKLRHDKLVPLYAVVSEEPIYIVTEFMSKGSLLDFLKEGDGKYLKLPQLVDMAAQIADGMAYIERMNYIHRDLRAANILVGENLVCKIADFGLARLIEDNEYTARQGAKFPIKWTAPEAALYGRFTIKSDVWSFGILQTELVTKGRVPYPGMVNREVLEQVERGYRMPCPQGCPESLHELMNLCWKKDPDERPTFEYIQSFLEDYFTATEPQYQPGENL
# Experimental: as §1, §2
# cSRC = target: T8, cSRC (Homo sapiens, UniProt P12931); assay: as above; assay type: biochemical; conditions: Table 5
# T8 construct: purchased Eurofins Pharma Discovery Services UK Limited
# Experimental: as §1, §2
# Hck = target: T9, Hck (Homo sapiens, UniProt P08631); assay: as above; assay type: biochemical; conditions: Table 5
# T9 construct: purchased Eurofins Pharma Discovery Services UK Limited
# T9 sequence (P08631 whole entry, species assumed): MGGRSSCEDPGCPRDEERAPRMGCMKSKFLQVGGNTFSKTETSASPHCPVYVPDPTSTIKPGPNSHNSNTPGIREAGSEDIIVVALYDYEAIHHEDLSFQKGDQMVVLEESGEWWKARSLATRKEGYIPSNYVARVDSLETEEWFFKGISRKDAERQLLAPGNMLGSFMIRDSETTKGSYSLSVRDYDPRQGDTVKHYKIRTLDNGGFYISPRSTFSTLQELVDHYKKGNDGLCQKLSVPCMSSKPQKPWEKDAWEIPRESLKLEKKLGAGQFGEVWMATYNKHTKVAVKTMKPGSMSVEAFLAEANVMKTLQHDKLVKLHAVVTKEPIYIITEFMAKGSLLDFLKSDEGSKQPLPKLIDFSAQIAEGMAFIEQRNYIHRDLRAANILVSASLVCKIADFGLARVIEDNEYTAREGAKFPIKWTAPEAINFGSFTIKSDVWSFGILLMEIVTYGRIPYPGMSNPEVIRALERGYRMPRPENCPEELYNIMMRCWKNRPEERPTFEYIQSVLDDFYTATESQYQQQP
# Experimental: as §1
# The ability of polypeptides of the present invention to activate Src family kinases was examined in vitro. Lck activation studies were carried out as described above and all Lck activity values are shown as percentage relative to control. […]
molecule,measurement,setting,value
CCCCCCCCCCC(N)C(=O)O (stereo not drawn) [H-(2Adod)1-OH],Lck activation above control (1 μM),Lck; Table 7,0%
same,Lck activation above control (10 μM),"Lck; 10 μM, Table 7",0%
CCCCCCCCCCC(N)C(=O)NC(CCCCCCCCCC)C(=O)O (stereo not drawn) [H-(2Adod)2-OH],Lck activation above control (1 μM),Lck; Table 7,0%
same,Lck activation above control (10 μM),"Lck; 10 μM, Table 7",18%
CCCCCCCCCCC(N)C(=O)NC(CCCCCCCCCC)C(=O)NC(CCCCCCCCCC)C(=O)O (stereo not drawn) [H-(2Adod)3-OH],Lck activation above control (1 μM),Lck; Table 7,0%
same,Lck activation above control (10 μM),"Lck; 10 μM, Table 7",0%
CCCCCCCCCCC(N)C(=O)NC(CCCCCCCCCC)C(=O)NC(CCCCCCCCCC)C(=O)NC(CCCCCCCCCC)C(=O)O (stereo not drawn) [H-(2Adod)4-OH] (H-[ξGly(decyl)][ξGly(decyl)][ξGly(decyl)][ξGly(decyl)]-OH),Lck activation above control (1 μM),Lck; Table 7,0%
same,Lck activation above control (10 μM),"Lck; 10 μM, Table 7",0%
"DSEAENPLYD-(2Adod)4-NH2 (DSEAENPLYD-{2Adod-2Adod-2Adod-2Adod-NH2}) [DSEAENPLYD-(2-Adod)4-NH2, anionic residues at 1, 3, 5, 10 in place of Arg and Lys]",Lck activation (FIG. 30),Lck; cationic versus anionic residues,does not increase the activity of Lck
RSKAKNPLY,auto-phosphorylation of Lck at Y394,Lck(h),induces a dose-dependent auto-phosphorylation of Lck
same,IL-2 secretion,wild-type Jurkat cells,increase IL-2 secretion
same,IL-12 secretion,wild-type Jurkat cells,increase IL-12 secretion
RSKAKNPLYR,auto-phosphorylation of Lck at Y394,Lck(h),does not increase
same,IL-2 secretion,wild-type Jurkat cells,increase IL-2 secretion
same,IL-12 secretion,wild-type Jurkat cells,not
RSKAKNPLYR-1C10-OH (RSKAKNPLYR-{2Adod-OH}) [… coupled at the C-terminal end toone 2-amino dodecanoic acid residue],Lck Activity 10 μM,"Lck; 10 μM, Table 8",221%
same,Lck Activity 30 μM,"Lck; 30 μM, Table 8",277%
"RSKAKNPLYR-(2Adod)4-OH (RSKAKNPLYR-{2Adod-2Adod-2Adod-2Adod-OH}) [… coupled to four 2-amino dodecanoic acid residues, non-amidated]",Lck activation above control (1 μM),Lck; Table 9,252%
same,Lck activation above control (10 μM),"Lck; 10 μM, Table 9",395%
RVKVKVVVV,"Lck Activity (1 μM), kinase Blk",Blk; 1 μM,0%
same,"Lck Activity (10 μM), kinase Blk",Blk; 10 μM,0%
same,"Lck Activity (1 μM), kinase Fgr",Fgr; 1 μM,0%
same,"Lck Activity (10 μM), kinase Fgr",Fgr; 10 μM,0%
same,"Lck Activity (1 μM), kinase Fyn",Fyn; 1 μM,0%
same,"Lck Activity (10 μM), kinase Fyn",Fyn; 10 μM,0%
same,"Lck Activity (1 μM), kinase Lyn",Lyn; 1 μM,0%
same,"Lck Activity (10 μM), kinase Lyn",Lyn; 10 μM,0%
same,"Lck Activity (1 μM), kinase Yes",Yes; 1 μM,0%
same,"Lck Activity (10 μM), kinase Yes",Yes; 10 μM,0%
same,"Lck Activity (1 μM), kinase c-Src",cSRC; 1 μM,0%
same,"Lck Activity (10 μM), kinase c-Src",cSRC; 10 μM,0%
same,"Lck Activity (1 μM), kinase Hck",Hck; 1 μM,0%
same,"Lck Activity (10 μM), kinase Hck",Hck; 10 μM,0%
